Experimental data: the supplement of paper PMC12042874
± gives the uncertainty stated by the source.

Assay: amyloid nucleation score (Sup35N fusion, yeast selection) (log enrichment); library NNK1; higher = more nucleation; inactive = no reads after selection
In short: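 Three technical output replicates were used for random libraries. Psi-negative yeast expressing peptides of 20 random codons fused to Sup35N were induced with 100 μM copper sulfate for 24 hours and grown 7 days at 30°C on medium lacking adenine and uracil, and input and output plasmid inserts were Illumina-sequenced, excluding sequences with under 100 input reads. The nucleation score is the DiMSum log enrichment of output over input reads, centred on the mode score of non-aggregating sequences.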

Row | Substance | amyloid nucleation score
1 | LVMTNIVLRSVKERVHRLLR | -0.46 ± 0.81
2 | TDNTSFELYIWTDAFLKQTT | 0.208 ± 1
3 | FSDQTFSDLGMIEFRGFLWS | 0.343 ± 0.39
4 | WNRYWNLFYRGTLDSTAIGS | -1.76 ± 2.4
5 | GLFKICYLVT | 0.408 ± 0.34
6 | KSTPEYRSKDSMCELHKDMC | inactive
7 | CCVNDFPTISPLSPLKRFDR | -0.302 ± 0.54
8 | DLCQEPIG | -0.379 ± 0.3
9 | SYEFVVRSWLSLYLINFKSS | inactive
10 | HKHRKPSLNRVPGVGW | -0.78 ± 0.43
11 | LYCNVISILACFVTTIRGRG | 3.64 ± 0.16
12 | FEHWCFRLPCVKDESCWD | 0.821 ± 0.8
13 | TISLLTHVFLDVLWCGR | -0.779 ± 0.61
14 | TIKMDTQVLVYIRKRNKYCW | -0.746 ± 0.79
15 | FAWGREVRLEIEY | 0.371 ± 0.31
16 | SEVCPSSIKR | -0.067 ± 0.49
17 | YLYCSVSVYRFERFRRNHSR | 0.051 ± 0.3
18 | QKLLTSMSVITW | 1.81 ± 0.65
19 | TDIFSNISYQSGQPATIDYH | 0.176 ± 0.69
20 | RSSNNIPGGYWEPYGQHHFH | 2.44 ± 0.13
21 | VLSVSCVRYISGVRERWYVL | 1.23 ± 0.6
22 | SVVCVVSCYKIGAWLRAGG | 0.648 ± 0.52
23 | RYTFVITVYKIDDSSEMSWV | 0.82 ± 0.25
24 | CVFRCVLVKWSVNMVLLLWF | 0.536 ± 0.3
25 | DYKVTRPVDLVFDFGGIVYT | 0.714 ± 0.22

Row | Substance | amyloid nucleation score
26 | IWNSVARFRYSSMGFVVSAG | 0.898 ± 0.93
27 | LWLRYGL | 0.415 ± 0.72
28 | RSMRDLDPTMVFGSVNSLGW | 0.166 ± 0.63
29 | LNYIQNC | inactive
30 | MLEESVLHSLLICGANSVFK | 0.195 ± 1.1
31 | GNVGYLGVSRYLHLC | -0.073 ± 0.41
32 | HVSAWWLTSNV | -0.205 ± 0.37
33 | WLTRFRRGAACRDLLWRGER | -0.096 ± 1.4
34 | FVCRLATNYH | inactive
35 | VSQTPWTLYLN | 0.229 ± 0.26
36 | FMGFISACQRMIIIMYVFRT | -0.126 ± 0.28
37 | WLKVRNTR | -0.178 ± 0.49
38 | SINVPPHSGHELH | 1.12 ± 0.76
39 | TVLGQH | -0.058 ± 0.29
40 | RGIYWVSFVLSGRIIGWMVG | 0.275 ± 0.8
41 | QAVRIVGERLAFFGN | 0.607 ± 0.65
42 | SDLELTTLFF | -0.57 ± 0.37
43 | RGNLESFVLGNIRVTNP | 1.01 ± 0.18
44 | TRLSRERINRDWEREGCLTP | 0.798 ± 0.81
45 | VQDLYCIRYL | -1.39 ± 2.4
46 | QDRENLNCIHY | 1.24 ± 0.31
47 | LYWSPVWM | -0.232 ± 1.5
48 | AYINLTPHGPRVCRFNWLAS | -0.094 ± 0.7
49 | PSVTVYIYNLSSIFYGIRDL | 6.71 ± 0.075
50 | RTPHVERGTGIGLEISSTEV | 0.041 ± 0.97

Row | Substance | amyloid nucleation score
51 | VARFCNGYTHNIAMCTGIQR | -2.44 ± 2.4
52 | LKVERMTRKPHGVELLSFRR | -0.163 ± 0.97
53 | PAALAWTNFLKASYDLKMGA | -0.587 ± 1.3
54 | KRFLSYWRFSWGWYIAQACG | -0.68 ± 1.4
55 | RYPSLLWIFDFNYLLYLRFQ | -0.451 ± 0.25
56 | GREANILFLYLVLRTFFRMG | inactive
57 | KFNPLLITKFSAWECGLVVG | -1.55 ± 1.9
58 | NGVPWG | -0.21 ± 0.95
59 | IIYNAKE | 0.367 ± 0.36
60 | YEFLIWVCPTALRRVVSSVV | 0.189 ± 0.74
61 | MNLYNRNYLYCIYRKETTTT | -0.957 ± 1.4
62 | HFGWNLGPMHTMKSSV | 0.464 ± 0.49
63 | PYHIKLLQR | 1.44 ± 0.18
64 | YARIAKRTFLVYSQNEARFE | 0.843 ± 0.98
65 | SKYVYSF | 1.2 ± 0.13
66 | TGWNGNLGSVVAE | -0.375 ± 0.5
67 | IWLKWCNSPLVRLSMGNSSF | 0.206 ± 0.27
68 | IIEFML | inactive
69 | NIRKPNLNTMTDRLDWSVQS | -0.102 ± 0.47
70 | TSVVVRSPRGVVEPKHYFCI | -1.19 ± 2.4
71 | HWLTV | -1.27 ± 1.6
72 | AWAKFCCSD | -0.012 ± 1.1
73 | GEKCGSVPGHQLGTDILSRA | 0.819 ± 0.67
74 | SFSSSSLYSLVCRYHSIRWA | 0.589 ± 0.28
75 | SLLIELSFRTGNSEY | 0.152 ± 0.5

Row | Substance | amyloid nucleation score
76 | YYEMIFSWVTPHSYRDTSYC | -0.733 ± 1.9
77 | SHTTILTSWRSYKKMKASNA | 0.496 ± 0.43
78 | DSMKMIILVDVGRNHGLGHR | 3.32 ± 0.16
79 | RAKICFVRQGRGFIMHRLLA | 1.39 ± 0.23
80 | YFYDILGCDWKALSGRLIDT | -0.603 ± 0.25
81 | QWAFYVNYLTSRDYFNIFTR | 1.05 ± 0.16
82 | RARCAVGS | -0.396 ± 1.5
83 | SYVSKSYLYKRGSELQAVLQ | -0.157 ± 0.65
84 | RKLKSCSTNGHIG | 6.02 ± 0.063
85 | PRSANCMCDYDRTAM | 0.316 ± 0.34
86 | PKATRIALPFFLGLCFSMCL | -0.143 ± 0.38
87 | RNLRY | 0.184 ± 1.1
88 | TCTFPKVIQSYAGRLAMPGY | -0.135 ± 0.58
89 | HMWYFRYGHEWSRTYNKCIK | -0.02 ± 0.72
90 | RRMGKSFKAYTDGVQRKILS | 0.593 ± 0.68
91 | RWPTRNFQGTVRYAR | -0.62 ± 0.7
92 | PECTSVRATGIGDWWEDRGA | -1.46 ± 2.7
93 | LLGMRFSVVPSPATFGWTHF | 1.81 ± 0.18
94 | IHSAYLNAQRKVWATAKFKW | -0.639 ± 0.35
95 | KCIYVFSYIYTFLNMCWRGH | 3.5 ± 0.1
96 | IFILD | inactive
97 | DCTEH | inactive
98 | GMFYVLVGENCCFYALVWTL | -0.223 ± 0.23
99 | MLSMFGWISSIFVYYYLNKR | 0.571 ± 0.17
100 | KLETYYGAFNFNWFLSLNGD | 5.08 ± 0.061

Row | Substance | amyloid nucleation score
101 | TRTGSRHPWRCLSDIASCNG | 0.466 ± 0.32
102 | YVDDFPRQSAGFIDT | 2 ± 0.57
103 | YHNLVLQSICDCSSLADLGW | 6.66 ± 0.059
104 | ERDCAMISNLSNLTVNY | -0.616 ± 0.36
105 | VLWTLVKIPHFTPNIMFRYY | 0.053 ± 1.1
106 | FSNDRCGFVAR | 0.149 ± 0.26
107 | VNCSRYRGESASDNWSGALL | -0.186 ± 0.85
108 | THQARVLNNVRALRSTFALL | 2.5 ± 0.12
109 | ILSERHWVFELYGLCGWRRE | 0.493 ± 0.52
110 | EVGNCFLESPGMVYVVGRDR | 0.51 ± 0.52
111 | NWVLHIRDCRAKALPLITDW | -0.034 ± 0.45
112 | CVDRQFAAVRQVTTIQTWCG | 0.983 ± 0.26
113 | RQLVIIFNDDLGDVGNGNFC | 7.61 ± 0.043
114 | LTGRVFRSYRYGCTGQIAVD | -0.624 ± 0.56
115 | LGLYSVCC | -0.219 ± 0.3
116 | IYYSFVGLVMCYAFPAEVWS | 1.4 ± 0.51
117 | LEVMRWYWESLLACISLCD | 0.853 ± 0.74
118 | QRPLCENRLDYKLGYSTMTF | -0.646 ± 1.6
119 | SDMDNTWLA | -0.797 ± 0.66
120 | MLRTMG | 0.746 ± 0.5
121 | MTPTTWLYPVILTSSLS | 0.44 ± 0.84
122 | YPAPPTNCLRQ | -0.449 ± 0.28
123 | LAWWLCGNLVTWYIITDGQW | 1.04 ± 0.55
124 | QSSSYERLKQTGKLSFYIDF | -0.069 ± 0.61
125 | STDSLLRWIKPERDGYRFLW | -0.479 ± 0.45

Row | Substance | amyloid nucleation score
126 | MPCNVGMGWCRVVNWWGLYG | 0.604 ± 0.44
127 | VSESDKEGLEK | -1.17 ± 1.6
128 | AFPTIAYMIWVFVDVQLCSE | 1.25 ± 0.58
129 | HLSVMMGFGFRTFNMIVMVC | 1.05 ± 0.26
130 | SKCIWDFGYVSPWAISS | inactive
131 | GRLCPLRSKTSFNCY | -1.81 ± 1.3
132 | DKRECFGLDLEIWSMVVWMW | 0.611 ± 0.8
133 | RRVNNKLRSTSGSTLTCCTY | 0.216 ± 1.4
134 | INSTEIPFDPAVKL | -0.908 ± 0.79
135 | ILLELVASTVVLPLIT | 0.165 ± 0.43
136 | KIIPRRRKSFMLNTFKYPHD | 1.62 ± 0.52
137 | VQAKYNSSLGESNRDSDCAS | 0.187 ± 0.34
138 | CRCYNWFRWSLMS | -0.07 ± 0.26
139 | HDICTLWILSAL | 0.602 ± 0.78
140 | VGICMWHN | 0.718 ± 0.21
141 | TETQECVSRYVILGGGAGVS | 0.271 ± 0.71
142 | RVIPAAVISHYVK | -0.143 ± 1.7
143 | YCGSYHLGSFGIYSTVEIYC | 1.37 ± 0.9
144 | TNPYSWNLYCGFLNTDWVV | 0.787 ± 0.85
145 | MSVVWSWMYFIKLDTFA | -0.348 ± 0.23
146 | INNGIQ | -0.047 ± 0.96
147 | RSFAYSLSQGYFANMNAKVR | inactive
148 | MERPGNCVGWRRCPLHVTNG | -0.292 ± 1.2
149 | TPYLDFI | 1.12 ± 0.56
150 | TALRLTSSSIKIATQVDLKF | 2.06 ± 0.16

Row | Substance | amyloid nucleation score
151 | GRARVSIRSWSRSWSVGRVL | 0.309 ± 0.63
152 | FGNSFRSQGVSFM | 0.414 ± 0.32
153 | FRLRVSGVSCMR | -0.912 ± 2.4
154 | VAVRTPMSVCSVLLGSGSGL | -0.162 ± 1.1
155 | SILEQILC | -0.324 ± 0.22
156 | RTSRHVVVRREMRDRT | 0.202 ± 0.21
157 | ASIKTRTSFRVKVWYWVRNL | -0.598 ± 1.7
158 | SRDRKVYLAYVYVYTRNVQT | 0.683 ± 0.34
159 | SNKTSKDGCEFQVVQLVQRV | -0.059 ± 0.33
160 | NTVRNMSVNELFVSFDRGWF | 4.83 ± 0.063
161 | CNYTSPPLSVKDRASLCHTN | -0.301 ± 0.93
162 | WGRMV | 0.248 ± 0.74
163 | IENRFLGVKLIAGCSHGLWS | -0.241 ± 0.57
164 | KYFIMCDIILCVVPVSYTGG | 3.87 ± 0.074
165 | PVVPCYPRLKVCTGRRTAGA | 0.684 ± 0.55
166 | YFRIDAKTWFVSFPVALLPV | -0.557 ± 0.29
167 | SVISRIKCRASRDGLHHGNH | 0.862 ± 0.28
168 | QASSGIDVNHFYAVNLTSML | 0.487 ± 0.97
169 | NFTICLGRSTEHPGIRFDAG | -0.207 ± 1.9
170 | FLVSCYPWVE | 0.248 ± 0.71
171 | SSFRLHR | inactive
172 | GDFLIPRARDQFYRFSGFND | 0.863 ± 0.46
